Drawing on article PMC6345366 (Chemical communications (Cambridge, England), 2017), this text covers dH and Kd for 2 molecules.

Holding throughout (assay): ITC
In general terms: Isothermal titration calorimetry measures the heat released or taken up as one component is titrated into another.

For one assay, the target named is T1, TAF3 PHD zinc finger.
T1 sequence (Q5VWG9 whole entry, species assumed, looked up): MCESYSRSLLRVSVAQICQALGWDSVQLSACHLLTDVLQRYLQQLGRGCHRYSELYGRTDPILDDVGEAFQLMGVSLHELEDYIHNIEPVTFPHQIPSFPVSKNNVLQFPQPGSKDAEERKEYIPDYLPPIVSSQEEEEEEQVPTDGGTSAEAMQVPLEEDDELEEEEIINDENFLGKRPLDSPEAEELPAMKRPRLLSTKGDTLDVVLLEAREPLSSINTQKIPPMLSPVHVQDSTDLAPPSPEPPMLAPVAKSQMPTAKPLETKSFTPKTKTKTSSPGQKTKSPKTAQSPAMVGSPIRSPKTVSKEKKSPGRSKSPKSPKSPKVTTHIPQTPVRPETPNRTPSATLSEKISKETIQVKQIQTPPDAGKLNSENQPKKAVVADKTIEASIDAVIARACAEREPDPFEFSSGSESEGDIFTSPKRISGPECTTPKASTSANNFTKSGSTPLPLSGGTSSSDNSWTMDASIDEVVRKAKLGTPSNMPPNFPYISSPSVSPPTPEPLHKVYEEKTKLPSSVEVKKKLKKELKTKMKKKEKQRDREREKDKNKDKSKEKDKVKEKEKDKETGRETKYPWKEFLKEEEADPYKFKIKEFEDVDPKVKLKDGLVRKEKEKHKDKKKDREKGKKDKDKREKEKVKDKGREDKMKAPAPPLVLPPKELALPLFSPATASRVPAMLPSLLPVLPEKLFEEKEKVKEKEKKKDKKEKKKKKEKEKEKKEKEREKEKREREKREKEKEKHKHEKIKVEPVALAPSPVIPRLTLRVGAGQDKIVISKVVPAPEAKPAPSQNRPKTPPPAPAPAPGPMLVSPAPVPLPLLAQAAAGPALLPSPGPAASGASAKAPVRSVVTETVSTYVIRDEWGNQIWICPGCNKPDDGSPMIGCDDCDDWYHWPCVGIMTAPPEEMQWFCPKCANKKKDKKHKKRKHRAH

Assay [1] deals with T2, KDM4A tandem tudor domain (human).
T2 sequence (O75164 whole entry, looked up): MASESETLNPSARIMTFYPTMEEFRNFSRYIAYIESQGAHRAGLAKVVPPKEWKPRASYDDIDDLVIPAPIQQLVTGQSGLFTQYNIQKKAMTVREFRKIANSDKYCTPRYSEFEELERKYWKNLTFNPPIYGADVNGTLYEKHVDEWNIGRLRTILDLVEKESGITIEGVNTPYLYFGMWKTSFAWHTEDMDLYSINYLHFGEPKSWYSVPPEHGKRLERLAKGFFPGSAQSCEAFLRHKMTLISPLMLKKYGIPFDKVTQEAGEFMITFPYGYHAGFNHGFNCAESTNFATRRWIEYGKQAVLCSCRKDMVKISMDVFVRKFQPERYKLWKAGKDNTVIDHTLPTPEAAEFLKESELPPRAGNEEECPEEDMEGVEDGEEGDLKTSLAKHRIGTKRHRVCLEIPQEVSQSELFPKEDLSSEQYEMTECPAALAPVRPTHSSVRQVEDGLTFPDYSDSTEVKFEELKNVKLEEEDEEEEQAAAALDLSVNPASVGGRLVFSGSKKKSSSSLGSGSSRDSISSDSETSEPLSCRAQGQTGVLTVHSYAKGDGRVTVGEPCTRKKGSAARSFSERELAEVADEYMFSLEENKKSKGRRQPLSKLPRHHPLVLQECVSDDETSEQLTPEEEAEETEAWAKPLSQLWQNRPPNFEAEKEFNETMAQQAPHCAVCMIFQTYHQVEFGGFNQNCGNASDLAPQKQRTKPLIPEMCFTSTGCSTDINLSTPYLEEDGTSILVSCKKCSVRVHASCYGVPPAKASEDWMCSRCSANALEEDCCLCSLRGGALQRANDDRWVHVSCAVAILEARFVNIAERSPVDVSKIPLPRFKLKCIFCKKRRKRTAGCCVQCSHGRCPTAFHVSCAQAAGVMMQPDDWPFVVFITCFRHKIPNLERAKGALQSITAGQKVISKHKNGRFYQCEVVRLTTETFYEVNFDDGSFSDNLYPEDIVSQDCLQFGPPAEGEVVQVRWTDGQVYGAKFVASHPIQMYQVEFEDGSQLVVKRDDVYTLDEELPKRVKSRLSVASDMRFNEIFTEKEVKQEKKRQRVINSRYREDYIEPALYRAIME

The target in assay [2] is SGF29 tandem tudor domain.
Sequence of SGF29 tandem tudor domain (Q96ES7 whole entry, the tested form may be a part): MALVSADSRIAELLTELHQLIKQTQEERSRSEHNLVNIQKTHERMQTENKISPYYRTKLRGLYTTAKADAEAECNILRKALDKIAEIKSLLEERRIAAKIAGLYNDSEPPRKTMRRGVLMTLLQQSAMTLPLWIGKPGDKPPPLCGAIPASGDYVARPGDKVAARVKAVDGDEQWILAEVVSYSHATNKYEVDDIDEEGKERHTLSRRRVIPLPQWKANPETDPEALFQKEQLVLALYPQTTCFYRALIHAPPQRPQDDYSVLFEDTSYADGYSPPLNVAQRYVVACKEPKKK
The target of assay [3] is T3, KDM5A PHD3 (third PHD zinc finger of KDM5A) (UniProt P29375 1609-1659).
T3 sequence: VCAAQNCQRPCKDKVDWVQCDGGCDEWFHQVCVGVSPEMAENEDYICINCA

Square brackets hold non-standard residues; d marks the D form. Ends that are not written are not given here.

B1: 10-mer histone peptide L-H3K4me3 (peptide)
peptide: ARTK(Me3)QTARKS
The Kd is a measure of binding affinity in units of concentration. Low readings indicate tighter binding, high ones weaker binding. As to B1, the dH with TAF3 PHD zinc finger was -10.1 kcal/mol; in assay [1], -13.1 kcal/mol; in assay [2], -7.7 kcal/mol; in assay [3], -11.1 kcal/mol. This molecule came in with a dissociation constant (Kd) in assay [3] of 110 nM.

B2: 10-mer histone peptide D-H3K4me3 (peptide)
peptide: ART[dK](Me3)QTARKS
In assay [3], B2 displayed a Kd of 1200 nM and a dH of -7.8 kcal/mol.
